Measurements taken from patent publication US9725518B2, “Antibodies that bind to Jagged 1” (Cancer Research Technology Limited, priority 2013, dated 2017).

Key:
[1] = Soluble aggregates of transiently expressed antibodies; type: physicochemical; settings: Protein A purified antibody
Text: The protein yield of these antibodies, their levels of soluble aggregates and their binding affinity to the immunogen (J1-DE3) are illustrated in (Table 6).

[2] = system: J1-induced Notch signalling; assay: Luciferase assay, LS174T RBPJ reporter stimulated with J1 protein; type: cell-based, human; settings: humanised/chimeric mAbs 10 μg/ml, NE3-Fc; DBZ control
Description: FIG. 9. […] (A) The colorectal cancer cell line LS174T expressing luciferase under the control of Notch co-factor RBPJ was stimulated with mammalian cell-expressed soluble J1 proteins (NE3-Fc and NE12-Fc) or a control protein in the presence of J1 mAbs (10 μg/ml), and luciferase activity was measured. […] (C) Breast cancer MDA-MB-231 cells were cultured with J1 mAbs. The expression level of the Notch target gene HES1 was measured by qPCR using β2m as the control gene. In all experiments the γ-secretase inhibitor DBZ was used as a positive control for pan Notch inhibition and a control mAb (IgG2b or IgG1) or no treatment (NT) were negative controls.
FIG. 20. Inhibition of human Jagged 1/Notch signalling by humanised and de-immunised J1-mAbs in vitro. The colorectal cancer cell line LS174T expressing luciferase under the control of Notch co-factor RbPJ was stimulated with mammalian cell-expressed recombinant J1 protein (NE3-Fc protein, right bar for each treatment) or a control protein (left bar) in the presence of J1 mAbs (10 μg/ml), and luciferase activity was measured. The parental murine monoclonal antibody (Mo), Murine IgG1, DMSO and DBZ were used as controls.
Having established that the J1 mAbs were able to block the binding of the J1 ligand to its receptor N1 their effect on the activity of the Notch signalling pathway was investigated. The human colorectal cancer cell line LS174T, stably expressing a luciferase reporter gene under control of Notch co-factor RBPJ, was stimulated with two forms of immobilised J1 protein: N-terminus to EGF3 and N-terminus to EGF12. […] Importantly, the best two J1 mAbs (J1-65D and J1-183D) were also tested against other Notch ligands in order to verify ligand specificity.
Prior to experiment, clear bottom 96-well plates (CELLSTAR) wells were coated with either J1-ECD fragments (NE3-Fc and NE12-Fc), other Notch-ligands (J2 or DLL4; both from R&D) or control protein (mlgG2b) at the concentration of 5 μg/ml in 0.1% BSA-PBS (overnight incubation at 4° C.). LS174T colorectal cancer cells, expressing the luciferase gene under control of the Notch cofactor RbPJ, were then plated (4×10^4 cells/well) in the presence of different mAbs (10 μg/ml) or DBZ (100 nM). Luciferase activity was then quantified 24 hours later using the Bright-Glo Luciferase Assay System (Promega).

[3] = system: MDA-MB-231 spheroids; assay: Spheroid assay (3-D growth), MDA-MB-231; type: cell-based, human; settings: humanised variants 5 μg/ml
Text: Similar findings were also reported for the Merck anti-N1 mAbs when tested on the LS-1034 cell line. As cell-cell contact is required to activate Notch signalling a spheroid-based 3-D growth model was used to test the ability of the J1 mAbs to block tumour growth. Furthermore, the 3-D model better mimics in vivo conditions including hypoxia and acidosis, allowing evaluation of the mAbs effect in a more realistic setting. Spheroids were generated from MDA-MB-231 breast cancer cells and the ability of different concentrations of the J1-65D mAb to inhibit their growth was evaluated.
Cells were harvested and resuspended in 2.5% Matrigel (BD)-complete DMEM medium. Cell suspension was plated on low-adherence 96-well plates (Corning) (200 μl/well) and spheroids, of approximately fixed cell number (5×10^3 cells for MDA-MB-231 and MDA-MB-468 cell lines; 2×10^3 for MCF7 cells) were then generated by spinning plates at 1800 rpm for 10 minutes. The following day, pictures of the spheroids were taken (day 1) and treatments were added (mAbs were used at 10 μg/ml [5 μg/ml for humanised antibodies] while DBZ was used at the concentration of 100 nM). In some experiments Paclitaxel (1 nM) and Doxorubicin (20 nM) were used in combination with J1-65D mAb treatment. Every 2 days pictures were taken and half of the medium was replaced with fresh one containing mAb/drug. At the end of the experiment, spheroids were either lysed for RNA extraction, were processed and paraffin-embedded for immunohistochemical analysis or were dissociated by pipetting and trypsinization into single cell suspensions for FACS analysis. Spheroid size was evaluated by image analysis using ImageJ software.

[4] = target: T1, N1 binding to cell surface expressed hJ1 (Homo sapiens, UniProt P78504); assay: Notch binding blocking assay (FACS): N1 EGF11-13 beads staining human J1-expressing cells; parameters: key: +: Complete blocking; X: No blocking
T1 construct: cell expressed full length human J1 (hJ1; HEK293 transfectants); expressed in transfected cells; host or cells: HEK293
T1 sequence (P78504 34-1218): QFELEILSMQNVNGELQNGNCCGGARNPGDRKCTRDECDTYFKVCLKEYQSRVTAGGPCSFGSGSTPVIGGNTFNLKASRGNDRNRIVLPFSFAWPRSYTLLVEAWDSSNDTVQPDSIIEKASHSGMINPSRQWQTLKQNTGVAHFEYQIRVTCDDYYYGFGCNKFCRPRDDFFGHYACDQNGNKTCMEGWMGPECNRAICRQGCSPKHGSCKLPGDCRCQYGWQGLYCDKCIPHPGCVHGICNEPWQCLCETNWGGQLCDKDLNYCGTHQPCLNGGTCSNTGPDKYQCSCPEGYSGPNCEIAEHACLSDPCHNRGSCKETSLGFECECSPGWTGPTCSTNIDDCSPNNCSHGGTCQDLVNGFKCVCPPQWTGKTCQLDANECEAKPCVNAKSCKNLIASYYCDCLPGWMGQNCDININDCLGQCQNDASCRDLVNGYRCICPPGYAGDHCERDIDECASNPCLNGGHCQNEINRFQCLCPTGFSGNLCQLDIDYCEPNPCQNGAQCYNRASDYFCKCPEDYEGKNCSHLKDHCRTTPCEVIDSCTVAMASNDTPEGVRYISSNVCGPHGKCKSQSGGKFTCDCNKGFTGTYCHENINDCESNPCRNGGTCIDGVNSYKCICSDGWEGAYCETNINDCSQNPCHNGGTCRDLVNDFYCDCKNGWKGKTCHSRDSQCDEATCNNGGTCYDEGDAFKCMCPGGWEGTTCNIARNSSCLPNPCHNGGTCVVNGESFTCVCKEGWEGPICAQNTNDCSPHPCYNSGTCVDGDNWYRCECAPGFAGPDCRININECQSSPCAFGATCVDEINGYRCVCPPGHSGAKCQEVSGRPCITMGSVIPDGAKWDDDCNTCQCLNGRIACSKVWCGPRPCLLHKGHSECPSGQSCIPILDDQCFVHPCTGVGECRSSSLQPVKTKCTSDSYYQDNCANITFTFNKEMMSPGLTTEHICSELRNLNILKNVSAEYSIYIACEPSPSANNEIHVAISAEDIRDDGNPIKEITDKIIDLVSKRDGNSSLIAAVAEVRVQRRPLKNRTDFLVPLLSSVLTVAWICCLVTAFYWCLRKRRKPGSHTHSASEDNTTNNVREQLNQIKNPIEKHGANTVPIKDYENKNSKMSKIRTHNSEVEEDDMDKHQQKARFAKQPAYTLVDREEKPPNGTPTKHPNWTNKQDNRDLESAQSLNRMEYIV
How it was run: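 E. coli-expressed, refolded human N1 EGF11-13 (411-526), biotinylated on avidin-coated fluorescent beads, stained human J1-transfected HEK293 cells with hybridoma supernatant or purified antibody diluted in HBSS/10% FCS. Purified mAbs titrated in dilution series; bead binding read by flow cytometry.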

[5] = final antibody concentration 0.2 μg/ml
[6] = final antibody concentration 0.4 μg/ml
[7] = final antibody concentration 0.6 μg/ml
[8] = final antibody concentration 1.0 μg/ml

B1: J1-183D variant 1: humanised/de-immunised J1-183D: J1-183D_VL_1 + J1-183D_VH_1 (antibody, V domains shown)
VH: QVQLVQSGAELKKPGASVKVSCKVSGYAFTDYAIHWIRQAPGQGLEWMGIINTYYGDSKYNQKFKDRVTMTVDKSTSTAYMELSSLRSEDTAVYYCARGYDGFAYWGQGTLVTVSSASTKGP
VL: DIQMTQSPSSLSASVGDRVTITCRTSENIYSYLTWYQQKPGKAPKLLVYNAKILAAGVPSRFSGSGSGTDFTLTISSLQPEDFATYYCQHHYDIPWTFGGGTKLEIKRT
% soluble aggregate [1]: 3.65% | inhibition of J1-induced luciferase activity [2]: inhibited as effectively as by the parental murine mAb | spheroid growth inhibition [3]: most comparable efficacy to the original murine antibody | Blocking of Notch1 binding to cell surface Jagged 1 [4, 5]: X | Blocking of Notch1 binding to cell surface Jagged 1 [4, 6]: + (Complete blocking) | Blocking of Notch1 binding to cell surface Jagged 1 [4, 7]: + (Complete blocking) | Blocking of Notch1 binding to cell surface Jagged 1 [4, 8]: + (Complete blocking)

B2: J1-65D variant 4: humanised/de-immunised J1-65D: J1-65D_VL_1 + J1-65D_VH_4 (antibody, V domains shown)
VH: QVQLVQSGAEVKKPGSSVKVSCKASGYTFTDYEMHWVRQAPGQGLEWMGAIQPGGGGTAYAQKFQGRVTITADKSTSTAYMELSSLRSEDTAVYYCTRRGYDDYPFAYWGQGTLVTVSSASTKGP
VL: DIQMTQSPSSLSASVGDRVTITCRASGNIHNYLAWYQQKPGKAPKLLIYNAKTLADDVPSRFSGSGSGTDYTLTISSLQPEDFATYYCQHFWSAPWTFGGGTKLEIKRT
% soluble aggregate [1]: 0% | inhibition of J1-induced luciferase activity [2]: inhibited as effectively as by the parental murine mAb | spheroid growth inhibition [3]: slightly reduced ability to inhibit spheroid growth | Blocking of Notch1 binding to cell surface Jagged 1 [4, 5]: X | Blocking of Notch1 binding to cell surface Jagged 1 [4, 6]: + (Complete blocking) | Blocking of Notch1 binding to cell surface Jagged 1 [4, 7]: + (Complete blocking) | Blocking of Notch1 binding to cell surface Jagged 1 [4, 8]: + (Complete blocking)

B3: J1-65D variant 9: humanised/de-immunised J1-65D: J1-65D_VL_3 + J1-65D_VH_1 (antibody, V domains shown)
VH: QVQLVQSGAELKKPGSSVKVSCKASGYTFTDYEMHWVRQAPGQGLEWMGAIQPGGGGTAYNQKFKGRVTLTADKSTSTAYMELSSLRSEDTAVYYCTRRGYDDYPFAYWGQGTLVTVSSASTKGP
VL: DIQMTQSPSSLSASVGDRVTITCRASGNIHNYLAWYQQKPGKAPKLLIYNAKTLADAVPSRFSGSGSGTDYTLTISSLQPEDFATYYCQHFWSAPWTFGQGTKLEIKRT
% soluble aggregate [1]: 0% | inhibition of J1-induced luciferase activity [2]: inhibited as effectively as by the parental murine mAb | spheroid growth inhibition [3]: most comparable to the parental mAb | Blocking of Notch1 binding to cell surface Jagged 1 [4, 5]: X | Blocking of Notch1 binding to cell surface Jagged 1 [4, 6]: + (Complete blocking) | Blocking of Notch1 binding to cell surface Jagged 1 [4, 7]: + (Complete blocking) | Blocking of Notch1 binding to cell surface Jagged 1 [4, 8]: + (Complete blocking)

B4: J1-65D variant 8: humanised/de-immunised J1-65D: J1-65D_VL_2 + J1-65D_VH_4 (antibody, V domains shown)
VH: QVQLVQSGAEVKKPGSSVKVSCKASGYTFTDYEMHWVRQAPGQGLEWMGAIQPGGGGTAYAQKFQGRVTITADKSTSTAYMELSSLRSEDTAVYYCTRRGYDDYPFAYWGQGTLVTVSSASTKGP
VL: DIQMTQSPSSLSASVGDRVTITCRASGNIHNYLAWYQQKPGKAPKLLIYNAKTLADAVPSRFSGSGSGTDYTLTISSLQPEDFATYYCQHFWSAPWTFGGGTKLEIKRT
% soluble aggregate [1]: 0% | inhibition of J1-induced luciferase activity [2]: inhibited as effectively as by the parental murine mAb | spheroid growth inhibition [3]: slightly reduced ability to inhibit spheroid growth | Blocking of Notch1 binding to cell surface Jagged 1 [4, 5]: X | Blocking of Notch1 binding to cell surface Jagged 1 [4, 6]: + (Complete blocking) | Blocking of Notch1 binding to cell surface Jagged 1 [4, 7]: + (Complete blocking) | Blocking of Notch1 binding to cell surface Jagged 1 [4, 8]: + (Complete blocking)

B5: J1-65D variant 5: humanised/de-immunised J1-65D: J1-65D_VL_2 + J1-65D_VH_1 (antibody, V domains shown)
VH: QVQLVQSGAELKKPGSSVKVSCKASGYTFTDYEMHWVRQAPGQGLEWMGAIQPGGGGTAYNQKFKGRVTLTADKSTSTAYMELSSLRSEDTAVYYCTRRGYDDYPFAYWGQGTLVTVSSASTKGP
VL: DIQMTQSPSSLSASVGDRVTITCRASGNIHNYLAWYQQKPGKAPKLLIYNAKTLADAVPSRFSGSGSGTDYTLTISSLQPEDFATYYCQHFWSAPWTFGGGTKLEIKRT
% soluble aggregate [1]: 0% | inhibition of J1-induced luciferase activity [2]: inhibited as effectively as by the parental murine mAb | spheroid growth inhibition [3]: most comparable to the parental mAb | Blocking of Notch1 binding to cell surface Jagged 1 [4, 5]: X | Blocking of Notch1 binding to cell surface Jagged 1 [4, 6]: + (Complete blocking) | Blocking of Notch1 binding to cell surface Jagged 1 [4, 7]: + (Complete blocking) | Blocking of Notch1 binding to cell surface Jagged 1 [4, 8]: + (Complete blocking)

B6: J1-65D variant 12: humanised/de-immunised J1-65D: J1-65D_VL_3 + J1-65D_VH_4 (antibody, V domains shown)
VH: QVQLVQSGAEVKKPGSSVKVSCKASGYTFTDYEMHWVRQAPGQGLEWMGAIQPGGGGTAYAQKFQGRVTITADKSTSTAYMELSSLRSEDTAVYYCTRRGYDDYPFAYWGQGTLVTVSSASTKGP
VL: DIQMTQSPSSLSASVGDRVTITCRASGNIHNYLAWYQQKPGKAPKLLIYNAKTLADAVPSRFSGSGSGTDYTLTISSLQPEDFATYYCQHFWSAPWTFGQGTKLEIKRT
% soluble aggregate [1]: 0.47% | inhibition of J1-induced luciferase activity [2]: inhibited as effectively as by the parental murine mAb | spheroid growth inhibition [3]: slightly reduced ability to inhibit spheroid growth | Blocking of Notch1 binding to cell surface Jagged 1 [4, 5]: X | Blocking of Notch1 binding to cell surface Jagged 1 [4, 6]: + (Complete blocking) | Blocking of Notch1 binding to cell surface Jagged 1 [4, 7]: + (Complete blocking) | Blocking of Notch1 binding to cell surface Jagged 1 [4, 8]: + (Complete blocking)
